Data as given in article PMC11739564, “Structure and function of a β-1,2-galactosidase from Bacteroides xylanisolvens, an intestinal bacterium” (Communications Biology, 2025).
Blank lines part the entries; values can stand above or below the molecule they belong to.

How the values were obtained:
[1] = target: Bxy_22780 (GH35 β-1,2-galactosidase from Bacteroides xylanisolvens), wild type (Bacteroides xylanisolvens); assay: crystal structure; WT enzyme co-crystallised with 20 mM galactose or MeβGal; reservoir 0.35 M potassium thiocyanate, 12% PEG 3350; 20 °C; oligomeric state from PISA server analysis of the crystal structures
[2] = target: Bxy_22780 E350G mutant (nucleophile mutant) (Bacteroides xylanisolvens); assay: crystal structure; E350G mutant, ligand-free; 10–11 mg/ml in 50 mM MOPS (pH 7.5), 300 mM NaCl; reservoir 0.2 M sodium citrate tribasic dihydrate, 20% PEG 3350, 100 mM bis–Tris propane (pH 7.5); 20 °C; oligomeric state from PISA server analysis of the crystal structure
purified protein = substrate: O=[N+]([O-])c1ccc(O[C@@H]2O[C@H](CO)[C@H](O)[C@H](O)[C@H]2O)cc1; assay: purified protein; conditions: hydrolysis, kinetic assays at pH 7.5, 30 °C
[3] = substrate: C[C@H]1O[C@@H](Oc2ccc([N+](=O)[O-])cc2)[C@H](O)[C@@H](O)[C@H]1O; assay: hydrolysis kinetics (read-out for this constant not clearly told); format: biochemical, Bacteroides xylanisolvens; conditions: kinetic assays at pH 7.5, 30 °C
Text: hydrolysis kinetics (read-out for this constant not clearly told) on Bxy_22780

- stoichiometry N [1]: 4
Molecule: Bxy_22780 (GH35 β-1,2-galactosidase from Bacteroides xylanisolvens), wild type (enzyme)

- stoichiometry N [2]: 4
Molecule: Bxy_22780 E350G mutant (nucleophile mutant) (enzyme)

B1: Bxy_22780 (Bacteroides xylanisolvens XB1A) (protein)
chain: RPPMYTSTNTEVPSRLVKNEHGSWQLIVNGKPFIMLAGELHNSSASTTEYLNSLWTSLKTLNLNTVLAPIAWEQFEPQEGIFDYTLINNMIDGARKNGFKLSILWFGSWKNGESSYAPTWVKEDTKRFFRVKSVEGKEIETISPFCENAMKADAKAFKTLVEHIKKVDQATGTVIALQPENEVGIFQGMDYSKASLAAYEQEVPQALIQYMKKNRKNLRKELLSVWEENGARTSGAWKTVFGDNAWSKSFYTTWQYATYIDFISAGAKEIYPLPTFCNCWLVQKPDDMPGVYPNGGPVSRVMDIWKAAAPHIDVLAPDIYLSDFKNIVADYHRADNPLLIPEAVMKPANAFWAFGEHSALCYSPFGIEDGADNFVFAQSYKVLNELIPLISEHQGSDRMIGVMKMPGESERTVTMGDYQLCIKYDAEDAYGLIIQTGKNEFVVAGINFKVYFTSTDKKKTGYIKQVWEGGYDTDGEWKATRLLNGDETYHNAVLIAKGRRTFTSEKSNNYNADHSDEIFVYSPTSYQAVWSPGIYRVTTYLR
notes: N-terminal signal peptide (22 residues, counted with the 14 upstream residues) removed; C-terminal His6-tag (pET30a), E. coli BL21(DE3); homotetramer, D494 of a neighbouring subunit contacts subsite -1
- Km (purified protein): 3.49 ± 0.53 mM
- Vmax (purified protein): 21.2 µmol/min/mg
- Vmax/Km (purified protein): 6080 µL/min/mg
- Km [3]: 7.95 ± 0.46 mM
- Vmax [3]: 14 µmol/min/mg
- Vmax/Km [3]: 1760 µL/min/mg
